The values that follow come from the supplement of paper PMC7877785.

This data set is described as follows: self-splicing fitness, log relative to wild type (ln ratio); higher = more splicing; Tetrahymena group I intron in knt gene, E. coli kanamycin selection, DiMSum; sequences stand for … in CUCUCU…GGAGGGAAAAGUUAUCAGGCAUGCACCUGGUAGCUAGUCUUUAAACCAAUAGAUUGCAUCGGUUUAAAAGGCAAGACCGUCAAAUUGCGGGAAAGGGGUCAACAGCCGUUCAGUACCAAGUCUCAGGGGAAACUUUGAGAUGGCCUUGCAAAGGGUAUGGUAAUAAGCUGACGGACAUGGUCCUAACCACGCAGCCAAGUCCUAAGUCAACAGAUCUUCUGUUGAUAUGGAUGCAGUUCACAGACUAAAUGUCGGUCGGGGAAGAUGUAUUCUUCUCAUAAGAUAUAGUCGGACCUCUCCUUAAUGGGAGCUAGCGGAUGAAGUGAUGCAACACUGGAGCCGCUGGGAACUAAUUUGUAUGCGAAAGUAUAUUGAUUAGUUUUGGAGUACUCGUGGUCG
The procedure, abridged:
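Six replicate transformations of E. coli BL21(DE3) with a pET-22b(+) library were grown overnight at 37°C or 30°C. The library randomised all eight P1ex-region intron nucleotides, the intron lying in the knt kanamycin-resistance gene, and plates were LB agar with or without 25 μg/mL kanamycin plus 100 μg/mL carbenicillin, 50 μM IPTG and 0.2% rhamnose. Pooled colonies were amplicon-sequenced on an Illumina HiSeq 2500, and fitness is the DiMSum error-weighted combination of wild-type-normalised replicate fold changes, kanamycin versus none.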

± gives the uncertainty stated by the source.

Consider GAUAAGCAAUAUUACGGUUU, for which the “self-splicing fitness (ln)” value (30 °C) was -1.22 ± 0.056 and the “self-splicing fitness (ln)” value (37 °C) is -0.908 ± 0.069.

With CAGUAGCAAUAUUACGAUUC, the “self-splicing fitness (ln)” value by setting is: (30 °C) -3.11 ± 0.22; (37 °C) -2.27 ± 0.26. The corresponding values for GACAAGCAAUAUUACGAAGU are -4.61 ± 0.27 and -2.18 ± 0.14. The like results for UCCCAGCAAUAUUACGGGCC were, in that order, -3.03 ± 0.22 and -1.7 ± 0.18. The corresponding values for UAAAAGCAAUAUUACGUACA are -1.05 ± 0.1 and -0.00957 ± 0.14.

Regarding AUAAAGCAAUAUUACGAAAU, the “self-splicing fitness (ln)” value (30 °C) is -0.905 ± 0.067 and the “self-splicing fitness (ln)” value (37 °C) is -0.451 ± 0.098. The like results for GAAGAGCAAUAUUACGCGGU were, in that order, -2.63 ± 0.14 and -2.55 ± 0.25. The corresponding values for UAUAAGCAAUAUUACGGCUC are -1.1 ± 0.17 and -0.161 ± 0.2. The like results for ACCCAGCAAUAUUACGCUCC were, in that order, -0.481 ± 0.099 and -0.338 ± 0.14. Consider AGCAAGCAAUAUUACGCCCC, for which the “self-splicing fitness (ln)” value was 0.415 ± 0.15 (30 °C) and -0.728 ± 0.18 (37 °C). The like results for UUCUAGCAAUAUUACGCACG were, in that order, -1.26 ± 0.26 and -0.399 ± 0.3.

Take CUUCAGCAAUAUUACGCCAC: the “self-splicing fitness (ln)” value (30 °C) was -2.72 ± 0.5. On to AAGGAGCAAUAUUACGCCAA, for which the “self-splicing fitness (ln)” value was -4.19 ± 0.46 (30 °C) and -3.11 ± 0.3 (37 °C). For GCUGAGCAAUAUUACGUAAC, the “self-splicing fitness (ln)” value runs as follows: (30 °C) -2.3 ± 0.24; (37 °C) -1.6 ± 0.36. The corresponding values for CGCGAGCAAUAUUACGAUUA are -3.1 ± 0.3 and -1.99 ± 0.35. GACGAGCAAUAUUACGUAAA: where the note is “30 °C”, the “self-splicing fitness (ln)” value was -2.58 ± 0.18.

In the case of CGUUAGCAAUAUUACGCAAA, the “self-splicing fitness (ln)” value was -2.53 ± 0.36 (30 °C) and -2.67 ± 0.48 (37 °C). The like results for GUAAAGCAAUAUUACGGUUG were, in that order, -2.91 ± 0.21 and -1.41 ± 0.2. As to GAUCAGCAAUAUUACGUUCC, the “self-splicing fitness (ln)” value (37 °C) was -2.85 ± 0.4. Turning to GUGGAGCAAUAUUACGAGCU, the “self-splicing fitness (ln)” value was -3.17 ± 0.26 (30 °C) and -2.01 ± 0.28 (37 °C).

For the sequence GGUUAGCAAUAUUACGCCCU, the “self-splicing fitness (ln)” value (30 °C) is -0.754 ± 0.45 and the “self-splicing fitness (ln)” value (37 °C) was -0.983 ± 0.48. The like results for GCUAAGCAAUAUUACGUUCA were, in that order, -1.08 ± 0.07 and -0.54 ± 0.092.

With GCUUAGCAAUAUUACGCUAU, the “self-splicing fitness (ln)” value (30 °C) is -2.31 ± 0.16 and the “self-splicing fitness (ln)” value (37 °C) was -1.38 ± 0.16. The corresponding values for CUGGAGCAAUAUUACGAGCG are -1.05 ± 0.094 and -0.179 ± 0.11. The like results for GUAGAGCAAUAUUACGUAUG were, in that order, -3.88 ± 0.22 and -3.78 ± 0.23. The like results for UUUAAGCAAUAUUACGUCCU were, in that order, -1.82 ± 0.2 and -1.09 ± 0.15. CGGCAGCAAUAUUACGGCAC: the “self-splicing fitness (ln)” value by setting is: (30 °C) -2.58 ± 0.28; (37 °C) -2.21 ± 0.22. The like results for UAUAAGCAAUAUUACGUUCU were, in that order, -1.03 ± 0.14 and -1.41 ± 0.2.

Regarding GGGAAGCAAUAUUACGUUGC, the “self-splicing fitness (ln)” value (30 °C) was -3.92 ± 0.42. For the sequence UAUUAGCAAUAUUACGAAGA, the “self-splicing fitness (ln)” value (30 °C) is -1.81 ± 0.17 and the “self-splicing fitness (ln)” value (37 °C) was -1.75 ± 0.26. The corresponding values for AGUAAGCAAUAUUACGUGCG are -1.27 ± 0.088 and -0.396 ± 0.097. The like results for ACUCAGCAAUAUUACGGAGU were, in that order, -2.78 ± 0.11 and -2.7 ± 0.18. For GACAAGCAAUAUUACGACCG, the “self-splicing fitness (ln)” value runs as follows: (30 °C) -0.672 ± 0.21; (37 °C) -0.326 ± 0.34. The corresponding values for AUUAAGCAAUAUUACGCCUU are -0.293 ± 0.16 and 0.373 ± 0.19. The corresponding values for UACUAGCAAUAUUACGUAAA are -1.66 ± 0.12 and -0.614 ± 0.14. The corresponding values for AUAAAGCAAUAUUACGUUUG are -2.84 ± 0.11 and -1.79 ± 0.12. UAAGAGCAAUAUUACGGGCG: the “self-splicing fitness (ln)” value (30 °C) was -2.73 ± 0.16 and the “self-splicing fitness (ln)” value (37 °C) is -2.29 ± 0.19.

Take UCGGAGCAAUAUUACGGGUG: the “self-splicing fitness (ln)” value is -3.03 ± 0.24 (30 °C) and -2.94 ± 0.2 (37 °C). The corresponding values for UUAGAGCAAUAUUACGGAGA are -0.579 ± 0.13 and -0.654 ± 0.23. In the case of CACGAGCAAUAUUACGGCUU, the “self-splicing fitness (ln)” value is, setting by setting: (30 °C) -3.77 ± 0.24; (37 °C) -3.16 ± 0.29. On to UAUUAGCAAUAUUACGUUUU, for which the “self-splicing fitness (ln)” value (37 °C) was -0.0777 ± 0.32. As to UAACAGCAAUAUUACGGCCU, the “self-splicing fitness (ln)” value (30 °C) was -1.21 ± 0.13 and the “self-splicing fitness (ln)” value (37 °C) was -0.33 ± 0.15. The corresponding values for GCUCAGCAAUAUUACGGGUC are -3.6 ± 0.22 and -2.91 ± 0.23. Consider ACCUAGCAAUAUUACGCAAC, for which the “self-splicing fitness (ln)” value is -1.98 ± 0.16 (30 °C) and -0.895 ± 0.094 (37 °C). The like results for CCUUAGCAAUAUUACGAGAU were, in that order, -2.62 ± 0.26 and -2.79 ± 0.21. The like results for AGUUAGCAAUAUUACGGCGC were, in that order, -0.53 ± 0.22 and 0.14 ± 0.33. The like results for GUUAAGCAAUAUUACGGUGC were, in that order, -2.42 ± 0.1 and -1.23 ± 0.12. As to GACAAGCAAUAUUACGGUAG, the “self-splicing fitness (ln)” value was -1.84 ± 0.098 (30 °C) and -0.222 ± 0.092 (37 °C).

In the case of UCGAAGCAAUAUUACGACAC, the “self-splicing fitness (ln)” value (30 °C) was -2.44 ± 0.41 and the “self-splicing fitness (ln)” value (37 °C) was -2.26 ± 0.38.

As to UUCCAGCAAUAUUACGCAUG, the “self-splicing fitness (ln)” value (30 °C) is -3.41 ± 0.25 and the “self-splicing fitness (ln)” value (37 °C) is -1.7 ± 0.16. The like results for CUAAAGCAAUAUUACGUUAU were, in that order, -4.11 ± 0.21 and -3.34 ± 0.26.

Take AGGCAGCAAUAUUACGACUG: the “self-splicing fitness (ln)” value was -1.99 ± 0.14 (30 °C) and -2.18 ± 0.18 (37 °C). With CUGCAGCAAUAUUACGUCCU, the “self-splicing fitness (ln)” value reads like this: (30 °C) -3.82 ± 0.37; (37 °C) -1.31 ± 0.31. The corresponding values for CCCCAGCAAUAUUACGCUAC are -2.29 ± 0.17 and -2.05 ± 0.22. In the case of UCCUAGCAAUAUUACGAAGG, the “self-splicing fitness (ln)” value by setting is: (30 °C) -2.91 ± 0.15; (37 °C) -2.1 ± 0.19. The like results for CAUCAGCAAUAUUACGGAAG were, in that order, -0.623 ± 0.054 and -0.416 ± 0.069. The like results for UGUAAGCAAUAUUACGUAUG were, in that order, -1.11 ± 0.093 and -0.727 ± 0.12. The corresponding values for GACCAGCAAUAUUACGAAAC are -1.43 ± 0.099 and 0.296 ± 0.11.

As for CUGUAGCAAUAUUACGGGCA, the “self-splicing fitness (ln)” value (37 °C) was -2.5 ± 0.49.

As for GCCGAGCAAUAUUACGUAUG, the “self-splicing fitness (ln)” value runs as follows: (30 °C) -3.36 ± 0.25; (37 °C) -3.11 ± 0.38.

In the case of CAGGAGCAAUAUUACGUCAC, the “self-splicing fitness (ln)” value (37 °C) was -1.92 ± 0.44. Take AUUUAGCAAUAUUACGAAAC: the “self-splicing fitness (ln)” value (30 °C) was -2.83 ± 0.22 and the “self-splicing fitness (ln)” value (37 °C) was -2 ± 0.27.
